Paper PMC2474558 (Biochemical Journal, 2008)

Target: hDOP–Renilla luciferase (human, UniProt P41143 1-372)
Assay: FRET or BRET

Chain of hDOP–Renilla luciferase (P41143 whole entry): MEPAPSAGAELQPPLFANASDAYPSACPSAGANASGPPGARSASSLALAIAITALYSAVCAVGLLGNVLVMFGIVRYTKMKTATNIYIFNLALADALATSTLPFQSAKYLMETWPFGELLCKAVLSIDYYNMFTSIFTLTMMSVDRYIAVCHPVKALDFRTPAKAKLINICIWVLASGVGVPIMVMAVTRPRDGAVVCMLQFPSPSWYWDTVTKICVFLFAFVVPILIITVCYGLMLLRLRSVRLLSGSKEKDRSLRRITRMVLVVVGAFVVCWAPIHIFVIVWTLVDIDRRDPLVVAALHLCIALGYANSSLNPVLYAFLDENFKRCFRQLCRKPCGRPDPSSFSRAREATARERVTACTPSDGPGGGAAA

B1: hCXCR2–GFP^2 (receptor)
chain: MEDFNMESDSFEDFWKGEDLSNYSYSSTLPPFLLDAAPCEPESLEINKYFVVIIYALVFLLSLLGNSLVMLVILYSRVGRSVTDVYLLNLALADLLFALTLPIWAASKVNGWIFGTFLCKVVSLLKEVNFYSGILLLACISVDRYLAIVHATRTLTQKRYLVKFICLSIWGLSLLLALPVLLFRRTVYSSNVSPACYEDMGNNTANWRMLLRILPQSFGFIVPLLIMLFCYGFTLRTLFKAHMGQKHRAMRVIFAVVLIFLLCWLPYNLVLLADTLMRTQVIQETCERRNHIDRALDATEILGILHSCLNPLIYAFIGQKFRHGLLKILAIHGLISKDSLPKDSRPSFVGSSSGHTSTTL
BRET50: 0.34 ± 0.02 [acceptor] to [donor] ratio
